# Results taken from patent publication US20250171562A1.
# B1: NIgG4D2A1(G4S)2 (Fc fusion)
# chain 1: DVQLQESGGGLVEAGGSLRLSCVASGRTFSGWSMGWFRQAPGKEREFVAAISWVGSWIGGTVYSNSVKGRFTISRDNARTTVYLQMNSLKPEDTAVYFCAAANSETPRIFASEYDYWGQGTQVTVSGGGGSGGGGSGPPCPPCPAPEFLGGPSVFLFPPKPKDTLMISRTPEVTCVVVDVSQEDPEVQFNWYVDGVEVHNAKTKPREEQFNSTYRVVSVLTVLHQDWLNGKEYKCKVSNKGLPSSIEKTISKAKGQPREPQVYTLPPCQEEMTKNQVSLWCLVKGFYPSDIAVEWESNGQPENNYKTTPPVLDSDGSFFLYSRLTVDKSRWQEGNVFSCSVMHEALHNHYTQKSLSLSLGK
# chain 2: EVQLLESGGGLVQPGGSLRLSCAASGFTFGNYDMAWVRQAPGKRPEWVSSIDTGGDITHYADSVKGRFTISRDNAKNTLYLQMNSLRPEDTAVYWCATDEEYALGPNEFDYYGQGTLVTVSSGGGGSGGGGSGPPCPPCPAPEFLGGPSVFLFPPKPKDTLMISRTPEVTCVVVDVSQEDPEVQFNWYVDGVEVHNAKTKPREEQFNSTYRVVSVLTVLHQDWLNGKEYKCKVSNKGLPSSIEKTISKAKGQPREPQVCTLPPSQEEMTKNQVSLSCAVKGFYPSDIAVEWESNGQPENNYKTTPPVLDSDGSFFLVSRLTVDKSRWQEGNVFSCSVMHEALHNHYTQKSLSLSLGK
# B2: CIgG4D1A1(G4S)1 (Fc fusion)
# chain 1: GPPCPPCPAPEFLGGPSVFLFPPKPKDTLMISRTPEVTCVVVDVSQEDPEVQFNWYVDGVEVHNAKTKPREEQFNSTYRVVSVLTVLHQDWLNGKEYKCKVSNKGLPSSIEKTISKAKGQPREPQVYTLPPCQEEMTKNQVSLWCLVKGFYPSDIAVEWESNGQPENNYKTTPPVLDSDGSFFLYSRLTVDKSRWQEGNVFSCSVMHEALHNHYTQKSLSLSLGKGGGGSDVQLQESGGGLVQAGGSLRLSCAASGLTFSRCDMGWFRQAPGKEREFVARISANGASTHYADFVKGRFTISRDNAKNTVYLQMNYLKPEDTAVYICAAARVPVTWQLYDYWGQGTQVTVS
# chain 2: GPPCPPCPAPEFLGGPSVFLFPPKPKDTLMISRTPEVTCVVVDVSQEDPEVQFNWYVDGVEVHNAKTKPREEQFNSTYRVVSVLTVLHQDWLNGKEYKCKVSNKGLPSSIEKTISKAKGQPREPQVCTLPPSQEEMTKNQVSLSCAVKGFYPSDIAVEWESNGQPENNYKTTPPVLDSDGSFFLVSRLTVDKSRWQEGNVFSCSVMHEALHNHYTQKSLSLSLGKGGGGSEVQLLESGGGLVQPGGSLRLSCAASGFTFGNYDMAWVRQAPGKRPEWVSSIDTGGDITHYADSVKGRFTISRDNAKNTLYLQMNSLRPEDTAVYWCATDEEYALGPNEFDYYGQGTLVTVSS
# B3: NIgG4D2A1(RS) (Fc fusion)
# chain 1: DVQLQESGGGLVEAGGSLRLSCVASGRTFSGWSMGWFRQAPGKEREFVAAISWVGSWIGGTVYSNSVKGRFTISRDNARTTVYLQMNSLKPEDTAVYFCAAANSETPRIFASEYDYWGQGTQVTVSRSGPPCPPCPAPEFLGGPSVFLFPPKPKDTLMISRTPEVTCVVVDVSQEDPEVQFNWYVDGVEVHNAKTKPREEQFNSTYRVVSVLTVLHQDWLNGKEYKCKVSNKGLPSSIEKTISKAKGQPREPQVYTLPPCQEEMTKNQVSLWCLVKGFYPSDIAVEWESNGQPENNYKTTPPVLDSDGSFFLYSRLTVDKSRWQEGNVFSCSVMHEALHNHYTQKSLSLSLGK
# chain 2: EVQLLESGGGLVQPGGSLRLSCAASGFTFGNYDMAWVRQAPGKRPEWVSSIDTGGDITHYADSVKGRFTISRDNAKNTLYLQMNSLRPEDTAVYWCATDEEYALGPNEFDYYGQGTLVTVSSRSGPPCPPCPAPEFLGGPSVFLFPPKPKDTLMISRTPEVTCVVVDVSQEDPEVQFNWYVDGVEVHNAKTKPREEQFNSTYRVVSVLTVLHQDWLNGKEYKCKVSNKGLPSSIEKTISKAKGQPREPQVCTLPPSQEEMTKNQVSLSCAVKGFYPSDIAVEWESNGQPENNYKTTPPVLDSDGSFFLVSRLTVDKSRWQEGNVFSCSVMHEALHNHYTQKSLSLSLGK
# B4: CIgG4D1A1(G4S)3 (Fc fusion)
# chain 1: GPPCPPCPAPEFLGGPSVFLFPPKPKDTLMISRTPEVTCVVVDVSQEDPEVQFNWYVDGVEVHNAKTKPREEQFNSTYRVVSVLTVLHQDWLNGKEYKCKVSNKGLPSSIEKTISKAKGQPREPQVYTLPPCQEEMTKNQVSLWCLVKGFYPSDIAVEWESNGQPENNYKTTPPVLDSDGSFFLYSRLTVDKSRWQEGNVFSCSVMHEALHNHYTQKSLSLSLGKGGGGSGGGGSGGGGSDVQLQESGGGLVQAGGSLRLSCAASGLTFSRCDMGWFRQAPGKEREFVARISANGASTHYADFVKGRFTISRDNAKNTVYLQMNYLKPEDTAVYICAAARVPVTWQLYDYWGQGTQVTVS
# chain 2: GPPCPPCPAPEFLGGPSVFLFPPKPKDTLMISRTPEVTCVVVDVSQEDPEVQFNWYVDGVEVHNAKTKPREEQFNSTYRVVSVLTVLHQDWLNGKEYKCKVSNKGLPSSIEKTISKAKGQPREPQVCTLPPSQEEMTKNQVSLSCAVKGFYPSDIAVEWESNGQPENNYKTTPPVLDSDGSFFLVSRLTVDKSRWQEGNVFSCSVMHEALHNHYTQKSLSLSLGKGGGGSGGGGSGGGGSEVQLLESGGGLVQPGGSLRLSCAASGFTFGNYDMAWVRQAPGKRPEWVSSIDTGGDITHYADSVKGRFTISRDNAKNTLYLQMNSLRPEDTAVYWCATDEEYALGPNEFDYYGQGTLVTVSS
# B5: NIgG4D2A1(G4S)1 (Fc fusion)
# chain 1: DVQLQESGGGLVEAGGSLRLSCVASGRTFSGWSMGWFRQAPGKEREFVAAISWVGSWIGGTVYSNSVKGRFTISRDNARTTVYLQMNSLKPEDTAVYFCAAANSETPRIFASEYDYWGQGTQVTVSGGGGSGPPCPPCPAPEFLGGPSVFLFPPKPKDTLMISRTPEVTCVVVDVSQEDPEVQFNWYVDGVEVHNAKTKPREEQFNSTYRVVSVLTVLHQDWLNGKEYKCKVSNKGLPSSIEKTISKAKGQPREPQVYTLPPCQEEMTKNQVSLWCLVKGFYPSDIAVEWESNGQPENNYKTTPPVLDSDGSFFLYSRLTVDKSRWQEGNVFSCSVMHEALHNHYTQKSLSLSLGK
# chain 2: EVQLLESGGGLVQPGGSLRLSCAASGFTFGNYDMAWVRQAPGKRPEWVSSIDTGGDITHYADSVKGRFTISRDNAKNTLYLQMNSLRPEDTAVYWCATDEEYALGPNEFDYYGQGTLVTVSSGGGGSGPPCPPCPAPEFLGGPSVFLFPPKPKDTLMISRTPEVTCVVVDVSQEDPEVQFNWYVDGVEVHNAKTKPREEQFNSTYRVVSVLTVLHQDWLNGKEYKCKVSNKGLPSSIEKTISKAKGQPREPQVCTLPPSQEEMTKNQVSLSCAVKGFYPSDIAVEWESNGQPENNYKTTPPVLDSDGSFFLVSRLTVDKSRWQEGNVFSCSVMHEALHNHYTQKSLSLSLGK
# B6: CIgG4D1A1(G4S)2 (Fc fusion)
# chain 1: GPPCPPCPAPEFLGGPSVFLFPPKPKDTLMISRTPEVTCVVVDVSQEDPEVQFNWYVDGVEVHNAKTKPREEQFNSTYRVVSVLTVLHQDWLNGKEYKCKVSNKGLPSSIEKTISKAKGQPREPQVYTLPPCQEEMTKNQVSLWCLVKGFYPSDIAVEWESNGQPENNYKTTPPVLDSDGSFFLYSRLTVDKSRWQEGNVFSCSVMHEALHNHYTQKSLSLSLGKGGGGSGGGGSDVQLQESGGGLVQAGGSLRLSCAASGLTFSRCDMGWFRQAPGKEREFVARISANGASTHYADFVKGRFTISRDNAKNTVYLQMNYLKPEDTAVYICAAARVPVTWQLYDYWGQGTQVTVS
# chain 2: GPPCPPCPAPEFLGGPSVFLFPPKPKDTLMISRTPEVTCVVVDVSQEDPEVQFNWYVDGVEVHNAKTKPREEQFNSTYRVVSVLTVLHQDWLNGKEYKCKVSNKGLPSSIEKTISKAKGQPREPQVCTLPPSQEEMTKNQVSLSCAVKGFYPSDIAVEWESNGQPENNYKTTPPVLDSDGSFFLVSRLTVDKSRWQEGNVFSCSVMHEALHNHYTQKSLSLSLGKGGGGSGGGGSEVQLLESGGGLVQPGGSLRLSCAASGFTFGNYDMAWVRQAPGKRPEWVSSIDTGGDITHYADSVKGRFTISRDNAKNTLYLQMNSLRPEDTAVYWCATDEEYALGPNEFDYYGQGTLVTVSS
# Target: mixture of three Der p 2 specific recombinant human IgE clones H10, H12, P4E (human) (UniProt P01854)
# Sequence (P01854 other isoform, or with tags, fused parts or gaps): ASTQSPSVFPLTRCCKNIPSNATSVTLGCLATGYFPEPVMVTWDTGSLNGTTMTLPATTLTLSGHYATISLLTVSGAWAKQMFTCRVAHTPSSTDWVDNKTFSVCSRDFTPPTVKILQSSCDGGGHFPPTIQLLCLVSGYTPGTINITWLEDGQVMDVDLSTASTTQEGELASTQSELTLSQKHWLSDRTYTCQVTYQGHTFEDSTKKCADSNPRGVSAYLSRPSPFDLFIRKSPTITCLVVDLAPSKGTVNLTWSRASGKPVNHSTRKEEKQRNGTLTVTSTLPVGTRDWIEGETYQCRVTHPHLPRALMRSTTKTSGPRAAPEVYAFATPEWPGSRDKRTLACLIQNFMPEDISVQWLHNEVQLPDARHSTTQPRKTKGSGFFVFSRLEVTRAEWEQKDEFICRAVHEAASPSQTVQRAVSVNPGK
# Assay: RBL-SX38 IgE displacement, FACS
EC50 [nM],Max effect/effect 1 µM [%],Binder
6.3,96,B1
65.8,96,B2
12.3,97,B3
64.6,96,B4
8.7,97,B5
87.2,96,B6
